{
  "source": "patent US20080268487",
  "molecules": {"B1": {"name": "AS160 GAP domain-GST fusion protein (protein)", "chain": "GASRDELQSRKVKLDYEEVGACQKEVLITWDKKLLNCRAKIRCDMEDIHTLLKEGVPKSRRGEIWQFLALQYRLRHRLPNKQQPPDISYKELLKQLTAQQHAILVDLGRTFPTHPYFSVQLGPGQLSLFNLLKAYSLLDKEVGYCQGISFVAGVLLLHMSEEQAFEMLKFLMYDLGFRKQYRPDMMSLQIQMYQLSRLLHDYHRDLYNHLEENEISPSLYAAPWFLTLFASQFSLGFVARVFDIIFLQGTEVIFKVALSLLSSQETLIMECESFENIVEFLKNTLPDMNTSEMEKIITQVFEMDISKQLHAYEVEYHVLQDELQESSYSCEDSETLEKLERANSQLKRQNMDLLEKLQVAHTKIQALESNLENLLTRETKMKSLIRTLEQEKMAYQKTVEQLRKLLPADALANCDLLLRDLNCNPNNKAKIGNKP"}, "B2": {"name": "recombinant GAP domain without GST (protein)", "chain": "B1 chain"}, "B3": {"name": "recombinant full-length FLAG-tagged AS160 (protein)", "chain": "MEPPSCIQDEPFPHPLEPEPGVSAQPGPGKPSDKRFRLWYVGGSCLDHRTTLPMLPWLMAEIRRRSQKPEAGGCGAPAAREVILVLSAPFLRCVPAPGAGASGGTSPSATQPNPAVFIFEHKAQHISRFIHNSHDLTYFAYLIKAQPDDPESQMACHVFRATDPSQVPDVISSIRQLSKAAMKEDAKPSKDNEDAFYNSQKFEVLYCGKVTVTHKKAPSSLIDDCMEKFSLHEQQRLKIQGEQRGPDPGEDLADLEVVVPGSPGDCLPEEADGTDTHLGLPAGASQPALTSSRVCFPERILEDSGFDEQQEFRSRCSSVTGVQRRVHEGSQKSQPRRRHASAPSHVQPSDSEKNRTMLFQVGRFEINLISPDTKSVVLEKNFKDISSCSQGIKHVDHFGFICRESPEPGLSQYICYVFQCASESLVDEVMLTLKQAFSTAAALQSAKTQIKLCEACPMHSLHKLCERIEGLYPPRAKLVIQRHLSSLTDNEQADIFERVQKMKPVSDQEENELVILHLRQLCEAKQKTHVHIGEGPSTISNSTIPENATSSGRFKLDILKNKAKRSLTSSLENIFSRGANRMRGRLGSVDSFERSNSLASEKDYSPGDSPPGTPPASPPSSAWQTFPEEDSDSPQFRRRAHTFSHPPSSTKRKLNLQDGRAQGVRSPLLRQSSSEQCSNLSSVRRMYKESNSSSSLPSLHTSFSAPSFTAPSFLKSFYQNSGRLSPQYENEIRQDTASESSDGEGRKRTSSTCSNESLSVGGTSVTPRRISWRQRIFLRVASPMNKSPSAMQQQDGLDRNELLPLSPLSPTMEEEPLVIFLSGEDDPEKIEERKKSKELRSLWRKAIHQQILLLRMEKENQKLEGASRDELQSRKVKLDYEEVGACQKEVLITWDKKLLNCRAKIRCDMEDIHTLLKEGVPKSRRGEIWQFLALQYRLRHRLPNKQQPPDISYKELLKQLTAQQHAILVDLGRTFPTHPYFSVQLGPGQLSLFNLLKAYSLLDKEVGYCQGISFVAGVLLLHMSEEQAFEMLKFLMYDLGFRKQYRPDMMSLQIQMYQLSRLLHDYHRDLYNHLEENEISPSLYAAPWFLTLFASQFSLGFVARVFDIIFLQGTEVIFKVALSLLSSQETLIMECESFENIVEFLKNTLPDMNTSEMEKIITQVFEMDISKQLHAYEVEYHVLQDELQESSYSCEDSETLEKLERANSQLKRQNMDLLEKLQVAHTKIQALESNLENLLTRETKMKSLIRTLEQEKMAYQKTVEQLRKLLPADALANCDLLLRDLNCNPNNKAKIGNKP"}},
  "key": {"GST-Rab10 (human Rab10) [1]": {"test_system": "T1, GST-Rab10 (human Rab10)", "T1 sequence": "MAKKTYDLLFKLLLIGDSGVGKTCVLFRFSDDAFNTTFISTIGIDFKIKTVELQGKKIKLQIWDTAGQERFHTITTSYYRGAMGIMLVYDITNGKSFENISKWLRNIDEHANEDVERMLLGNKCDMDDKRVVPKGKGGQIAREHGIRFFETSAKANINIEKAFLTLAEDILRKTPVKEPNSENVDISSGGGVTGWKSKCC"}, "GST-Rab2A [GST: P08515] [2]": {"test_system": "GST-Rab2A [GST: P08515]"}, "GST-Rab8A (dog Rab8A)": {"biological_target": "GST-Rab8A (dog Rab8A) (UniProt P61007)"}, "GST-Rab8B [GST: P08515] [3]": {"test_system": "GST-Rab8B [GST: P08515]"}, "GST-Rab10 (human Rab10) [4]": {"biological_target": "T2, GST-Rab10 (human Rab10)", "T2 chain": "T1 sequence"}, "[5]": {"biological_target": "GST-Rab14 (mouse Rab14), Q91V41", "sequence (Q91V41 whole entry, looked up)": "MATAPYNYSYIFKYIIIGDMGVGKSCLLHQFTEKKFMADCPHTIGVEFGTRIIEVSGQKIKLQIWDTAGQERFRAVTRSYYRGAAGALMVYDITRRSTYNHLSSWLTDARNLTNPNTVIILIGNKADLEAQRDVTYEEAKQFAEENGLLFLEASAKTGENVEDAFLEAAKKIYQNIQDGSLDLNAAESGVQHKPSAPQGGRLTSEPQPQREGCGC"}, "GST-Rab2A [GST: P08515] [6]": {"biological_target": "GST-Rab2A [GST: P08515]", "remark": "listed apart in the source"}, "[7]": {"biological_target": "T3, GST-Rab8A (dog Rab8A), P61007", "T3 chain": "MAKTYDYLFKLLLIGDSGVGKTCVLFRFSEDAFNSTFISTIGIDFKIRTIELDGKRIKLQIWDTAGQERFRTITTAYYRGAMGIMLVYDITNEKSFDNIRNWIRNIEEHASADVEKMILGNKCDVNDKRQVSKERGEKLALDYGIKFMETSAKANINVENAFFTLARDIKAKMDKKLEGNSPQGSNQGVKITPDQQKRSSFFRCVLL"}, "GST-Rab8B [GST: P08515] [8]": {"biological_target": "GST-Rab8B [GST: P08515]", "remark": "listed apart in the source"}},
  "note": "Where two headings read alike, the source gives them in different places.",
  "data": [
    {"molecule": "GST-GAP Arg/Lys (GST-GAP domain with Arg973 mutated to Lys)", "values": [
      {"measurement": "hydrolysis of Rab-bound [α^32P]GTP to GDP (thin layer chromatography)", "setting": "GST-Rab10 (human Rab10) [1]", "result": "For each of Rab 2A, 8A, 8B, 10, and 14, the GAP Arg/Lys construct exhibited no significant activity"},
      {"measurement": "hydrolysis of Rab-bound [α^32P]GTP to GDP (thin layer chromatography)", "setting": "GST-Rab2A [GST: P08515] [2]", "result": "For each of Rab 2A, 8A, 8B, 10, and 14, the GAP Arg/Lys construct exhibited no significant activity"},
      {"measurement": "hydrolysis of Rab-bound [α^32P]GTP to GDP (thin layer chromatography)", "setting": "GST-Rab8A (dog Rab8A)", "result": "For each of Rab 2A, 8A, 8B, 10, and 14, the GAP Arg/Lys construct exhibited no significant activity"},
      {"measurement": "hydrolysis of Rab-bound [α^32P]GTP to GDP (thin layer chromatography)", "setting": "GST-Rab8B [GST: P08515] [3]", "result": "For each of Rab 2A, 8A, 8B, 10, and 14, the GAP Arg/Lys construct exhibited no significant activity"}
    ]},
    {"molecule": "B1", "values": [
      {"measurement": "hydrolysis of Rab-bound [α^32P]GTP to GDP (thin layer chromatography)", "setting": "GST-Rab10 (human Rab10) [4]", "result": "the GAP domain markedly stimulated the hydrolysis of [α^32P]GTP bound to Rabs 2A, 8A, 8B, 10, and 14"},
      {"measurement": "GAP activity in the presence of a 10-fold molar excess of GST as carrier protein", "setting": "[5]", "result": "the presence of excess GST did not inhibit the GAP activity"},
      {"measurement": "GAP assay with GST-GAP domain attached to glutathione beads", "setting": "[5]", "result": "the same molar amount of the GST-GAP domain attached to glutathione beads showed the expected activity against Rab14"},
      {"measurement": "hydrolysis of Rab-bound [α^32P]GTP to GDP (thin layer chromatography)", "setting": "[5]", "result": "the GAP domain markedly stimulated the hydrolysis of [α^32P]GTP bound to Rabs 2A, 8A, 8B, 10, and 14"},
      {"measurement": "kcat/Km", "setting": "[5]", "result": "a kcat/Km value of 0.2 min^-1 µmolar^-1"},
      {"measurement": "rate of hydrolysis of the bound [α^32P]GTP with 130 nM GST-GAP domain", "setting": "[5]", "result": "approximately 3% per minute with 130 nM GST-GAP domain"},
      {"measurement": "hydrolysis of Rab-bound [α^32P]GTP to GDP (thin layer chromatography)", "setting": "GST-Rab2A [GST: P08515] [6]", "result": "the GAP domain markedly stimulated the hydrolysis of [α^32P]GTP bound to Rabs 2A, 8A, 8B, 10, and 14"},
      {"measurement": "hydrolysis of Rab-bound [α^32P]GTP to GDP (thin layer chromatography)", "setting": "[7]", "result": "the GAP domain markedly stimulated the hydrolysis of [α^32P]GTP bound to Rabs 2A, 8A, 8B, 10, and 14"},
      {"measurement": "hydrolysis of Rab-bound [α^32P]GTP to GDP (thin layer chromatography)", "setting": "GST-Rab8B [GST: P08515] [8]", "result": "the GAP domain markedly stimulated the hydrolysis of [α^32P]GTP bound to Rabs 2A, 8A, 8B, 10, and 14"}
    ]},
    {"molecule": "B2", "values": [
      {"measurement": "GAP activity compared with that of GST-GAP domain", "setting": "[5]", "result": "no difference was observed"}
    ]},
    {"molecule": "B3", "values": [
      {"measurement": "GAP assay with protein attached to anti-FLAG beads", "setting": "[5]", "result": "The full-length AS160 exhibited no significant activity above that of the Arg973Lys mutant with Rabs 2A, 8A, and 14 as substrates"},
      {"measurement": "GAP assay with protein attached to anti-FLAG beads", "setting": "GST-Rab2A [GST: P08515] [6]", "result": "The full-length AS160 exhibited no significant activity above that of the Arg973Lys mutant with Rabs 2A, 8A, and 14 as substrates"},
      {"measurement": "GAP assay with protein attached to anti-FLAG beads", "setting": "[7]", "result": "The full-length AS160 exhibited no significant activity above that of the Arg973Lys mutant with Rabs 2A, 8A, and 14 as substrates"}
    ]}
  ]
}
